Measurements: PMC9482650, “Quantitative fragmentomics allow affinity mapping of interactomes” (Nature Communications, 2022)

Experiments:
Test in all cases: holdup assay
Set-up in all cases: key: below the threshold = too weak to quantify, mostly under pKd 3.1 to 4
[1] = molecular target: ARHGEF12, Q9NZN5-2
[2] = molecular target: DLG4_1, P78352
[3] = molecular target: DLG1_2, Q12959
[4] = molecular target: MAGI1_2, Q96QZ7
[5] = molecular target: GRID2IP_1, A4D2P6; details: plain residues with an end cap or a label only (N-terminal biotin on a linker: ttds)
GRID2IP_1, A4D2P6, sequence (A4D2P6 1-87): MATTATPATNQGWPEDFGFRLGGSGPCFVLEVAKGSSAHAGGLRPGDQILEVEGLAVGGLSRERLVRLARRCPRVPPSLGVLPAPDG

[6] = molecular target: T1, LIN7B, Q9HAP6; details: plain residues with an end cap or a label only (N-terminal biotin on a linker: ttds)
T1 sequence (Q9HAP6 88-185, limits assumed, looked up): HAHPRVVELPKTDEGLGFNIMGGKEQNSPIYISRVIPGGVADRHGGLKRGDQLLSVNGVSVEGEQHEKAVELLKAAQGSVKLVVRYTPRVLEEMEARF

[7] = molecular target: T2, SYNJ2BP, P57105; details: plain residues with an end cap or a label only (N-terminal biotin on a linker: ttds)
T2 sequence (P57105 8-110, limits assumed, looked up): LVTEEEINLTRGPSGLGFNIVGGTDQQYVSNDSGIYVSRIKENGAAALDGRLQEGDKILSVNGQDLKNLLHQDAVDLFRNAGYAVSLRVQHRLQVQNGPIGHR

[8] = molecular target: HTRA1, Q92743; details: plain residues with an end cap or a label only (N-terminal biotin on a linker: ttds)
HTRA1, Q92743, sequence (Q92743 360-477): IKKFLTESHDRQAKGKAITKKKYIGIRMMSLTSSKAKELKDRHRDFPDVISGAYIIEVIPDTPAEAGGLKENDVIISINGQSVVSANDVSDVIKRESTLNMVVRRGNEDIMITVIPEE

[9] = molecular target: GRIP2_4, Q9C0E4
GRIP2_4, Q9C0E4, sequence (Q9C0E4 446-548): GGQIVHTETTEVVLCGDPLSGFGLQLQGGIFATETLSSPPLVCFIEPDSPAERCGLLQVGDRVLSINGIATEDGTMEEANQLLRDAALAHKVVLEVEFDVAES

[10] = molecular target: MAGI2_4, Q86UL8
MAGI2_4, Q86UL8, sequence (Q86UL8 772-865): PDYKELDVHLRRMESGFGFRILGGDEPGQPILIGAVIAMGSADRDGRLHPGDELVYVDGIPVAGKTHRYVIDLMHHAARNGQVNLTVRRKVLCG

[11] = molecular target: T3, RHPN1, Q8TCX5; details: plain residues with an end cap or a label only (N-terminal biotin on a linker: ttds)
T3 sequence (Q8TCX5 508-602, limits assumed, looked up): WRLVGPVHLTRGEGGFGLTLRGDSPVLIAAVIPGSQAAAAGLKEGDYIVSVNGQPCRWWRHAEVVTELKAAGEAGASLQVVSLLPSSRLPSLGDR

[12] = molecular target: SNX27, Q96L92
[13] = molecular target: FRMPD2_1, Q68DX3
FRMPD2_1, Q68DX3, sequence (Q68DX3 770-861): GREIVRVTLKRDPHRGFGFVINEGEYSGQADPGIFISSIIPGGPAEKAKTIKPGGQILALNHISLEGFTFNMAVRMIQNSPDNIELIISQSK

[14] = molecular target: T4, GRIP1_5, Q9Y3R0
T4 sequence (Q9Y3R0 568-668, limits assumed, looked up): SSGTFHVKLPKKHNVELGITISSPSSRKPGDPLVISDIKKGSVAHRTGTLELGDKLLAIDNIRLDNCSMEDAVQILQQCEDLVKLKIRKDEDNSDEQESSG

[15] = molecular target: T5, MPP7, Q5T2T1; details: plain residues with an end cap or a label only (N-terminal biotin on a linker: ttds)
T5 sequence (Q5T2T1 134-230, limits assumed, looked up): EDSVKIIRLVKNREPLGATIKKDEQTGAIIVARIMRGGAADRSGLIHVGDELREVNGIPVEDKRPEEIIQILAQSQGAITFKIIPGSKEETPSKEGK

[16] = molecular target: HTRA2, O43464
HTRA2, O43464, sequence (O43464 355-458): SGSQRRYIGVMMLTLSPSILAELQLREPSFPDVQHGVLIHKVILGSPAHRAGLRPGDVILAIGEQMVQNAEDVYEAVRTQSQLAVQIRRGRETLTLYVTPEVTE

[17] = molecular target: LAP2, Q96RT1
LAP2, Q96RT1, sequence (Q96RT1 other isoform, or with tags, fused parts or gaps): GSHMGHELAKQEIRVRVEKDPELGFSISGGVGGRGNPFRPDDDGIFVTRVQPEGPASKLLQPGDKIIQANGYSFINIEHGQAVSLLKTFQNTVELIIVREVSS

[18] = molecular target: DLG4_2, P78352
DLG4_2, P78352, sequence (P78352 155-259): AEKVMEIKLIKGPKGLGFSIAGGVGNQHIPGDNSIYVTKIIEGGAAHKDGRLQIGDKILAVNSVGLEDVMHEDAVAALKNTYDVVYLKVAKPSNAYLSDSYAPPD

[19] = molecular target: T6, MPDZ_10, O75970; details: plain residues with an end cap or a label only (N-terminal biotin on a linker: ttds)
T6 sequence (O75970 1624-1722, limits assumed, looked up): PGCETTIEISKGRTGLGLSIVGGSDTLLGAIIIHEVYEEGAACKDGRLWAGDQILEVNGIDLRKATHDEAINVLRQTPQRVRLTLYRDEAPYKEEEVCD

[20] = molecular target: T7, SIPA1L2, Q9P2F8; details: plain residues with an end cap or a label only (N-terminal biotin on a linker: ttds)
T7 sequence (Q9P2F8 945-1036, limits assumed, looked up): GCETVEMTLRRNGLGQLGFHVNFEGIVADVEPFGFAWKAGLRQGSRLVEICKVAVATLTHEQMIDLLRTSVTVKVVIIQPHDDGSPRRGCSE

[21] = molecular target: GORASP1, Q9BQQ3; details: plain residues with an end cap or a label only (N-terminal biotin on a linker: ttds)
GORASP1, Q9BQQ3, sequence (Q9BQQ3 1-208): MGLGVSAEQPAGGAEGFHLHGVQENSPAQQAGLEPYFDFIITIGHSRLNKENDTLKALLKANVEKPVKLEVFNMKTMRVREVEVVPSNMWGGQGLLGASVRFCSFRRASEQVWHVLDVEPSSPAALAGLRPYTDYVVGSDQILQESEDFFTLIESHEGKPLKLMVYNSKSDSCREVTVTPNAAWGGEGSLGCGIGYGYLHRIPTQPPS

[22] = molecular target: PDLIM1, O00151
PDLIM1, O00151, sequence (O00151 1-87): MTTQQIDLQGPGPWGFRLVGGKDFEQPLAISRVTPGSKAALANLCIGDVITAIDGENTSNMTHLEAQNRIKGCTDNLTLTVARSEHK

[23] = molecular target: GRASP, Q7Z6J2
GRASP, Q7Z6J2, sequence (Q7Z6J2 96-193): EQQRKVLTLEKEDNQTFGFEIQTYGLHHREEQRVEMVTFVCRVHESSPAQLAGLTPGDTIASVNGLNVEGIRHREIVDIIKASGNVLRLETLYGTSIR

[24] = molecular target: T8, APBA2_2, Q99767; details: plain residues with an end cap or a label only (N-terminal biotin on a linker: ttds)
T8 sequence (Q99767 654-744, limits assumed, looked up): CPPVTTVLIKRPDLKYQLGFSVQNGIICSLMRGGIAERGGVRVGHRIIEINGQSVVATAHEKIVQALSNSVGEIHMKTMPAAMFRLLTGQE

[25] = molecular target: DLG1_3, Q12959
DLG1_3, Q12959, sequence (Q12959 457-571): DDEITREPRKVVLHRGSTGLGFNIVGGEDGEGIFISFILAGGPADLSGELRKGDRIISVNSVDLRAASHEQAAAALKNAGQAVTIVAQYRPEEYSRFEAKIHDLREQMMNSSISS

[26] = molecular target: GRIP2_6, Q9C0E4
GRIP2_6, Q9C0E4, sequence (Q9C0E4 648-740): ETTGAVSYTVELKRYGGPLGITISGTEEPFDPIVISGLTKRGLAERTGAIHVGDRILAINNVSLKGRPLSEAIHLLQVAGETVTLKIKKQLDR

[27] = molecular target: MAGI3_2, Q5TCQ9; details: plain residues with an end cap or a label only (N-terminal biotin on a linker: ttds)
MAGI3_2, Q5TCQ9, sequence (Q5TCQ9 398-503): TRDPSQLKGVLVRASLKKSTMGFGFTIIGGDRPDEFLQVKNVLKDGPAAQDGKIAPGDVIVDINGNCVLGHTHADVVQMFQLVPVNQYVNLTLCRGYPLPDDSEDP

[28] = molecular target: GOPC, Q9HD26
[29] = molecular target: T9, SNTG1, Q9NSN8; details: plain residues with an end cap or a label only (N-terminal biotin on a linker: ttds)
T9 sequence (Q9NSN8 52-150, limits assumed, looked up): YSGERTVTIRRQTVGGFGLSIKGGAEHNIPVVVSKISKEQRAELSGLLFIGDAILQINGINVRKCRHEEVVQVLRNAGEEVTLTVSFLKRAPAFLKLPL

[30] = plain residues with an end cap or a label only (N-terminal biotin on a linker: ttds)
[31] = plain residues with an end cap or a label only (N-terminal biotin on a linker: ado-ado)

ARHGEF12, Q9NZN5-2, sequence (Q9NZN5 other isoform, or with tags, fused parts or gaps): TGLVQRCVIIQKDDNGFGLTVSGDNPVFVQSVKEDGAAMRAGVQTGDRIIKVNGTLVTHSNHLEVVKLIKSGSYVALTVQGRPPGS
MAGI1_2, Q96QZ7, sequence (Q96QZ7 456-580): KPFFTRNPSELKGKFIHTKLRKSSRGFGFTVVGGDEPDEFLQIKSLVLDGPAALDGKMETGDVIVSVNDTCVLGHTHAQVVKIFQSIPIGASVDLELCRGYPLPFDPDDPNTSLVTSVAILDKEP
DLG4_1, P78352, sequence (P78352 62-152): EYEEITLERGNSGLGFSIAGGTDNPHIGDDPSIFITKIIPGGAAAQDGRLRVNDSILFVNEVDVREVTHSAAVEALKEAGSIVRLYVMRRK
DLG1_2, Q12959, sequence (Q12959 314-412): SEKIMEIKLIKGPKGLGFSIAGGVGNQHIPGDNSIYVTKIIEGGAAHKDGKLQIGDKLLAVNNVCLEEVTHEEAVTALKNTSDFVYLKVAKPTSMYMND

## ERKLSSESQV [LRP4, O75096]
[1]; [30]
  pKd: 3.7
[2]; [30]
  pKd: 4.17
[3]; [30]
  pKd: 4.75
[4]; [30]
  pKd: 4.01
[5]
  pKd: below the threshold
[6]
  pKd: below the threshold
[7]
  pKd: 4.78
[8]
  pKd: below the threshold
[9]; [30]
  pKd: below the threshold
[10]; [30]
  pKd: 3.83
[11]
  pKd: 3.96
[12]; [30]
  pKd: 4.75
[13]; [30]
  pKd: below the threshold
[14]; [30]
  pKd: below the threshold
[15]
  pKd: below the threshold
[16]; [30]
  pKd: below the threshold
[17]; [30]
  pKd: 3.74
[18]; [30]
  pKd: 4.69
[19]
  pKd: below the threshold
[20]
  pKd: below the threshold
[21]
  pKd: below the threshold
[22]; [30]
  pKd: below the threshold
[23]; [30]
  pKd: below the threshold
[24]
  pKd: below the threshold
[25]; [30]
  pKd: below the threshold
[26]; [30]
  pKd: below the threshold
[27]
  pKd: 5.17
[28]; [30]
  pKd: below the threshold
[29]
  pKd: 4.37

## SRPQRTQTQV [HPV67-E6, A4U7F2]
[1]; [30]
  pKd: 4
[2]; [30]
  pKd: 4.58
[3]; [30]
  pKd: 5.01
[4]; [30]
  pKd: 5.22
[5]
  pKd: below the threshold
[6]
  pKd: below the threshold
[7]
  pKd: 4.4
[8]
  pKd: below the threshold
[9]; [30]
  pKd: below the threshold
[10]; [30]
  pKd: 4.14
[11]
  pKd: 3.84
[12]; [30]
  pKd: 3.98
[13]; [30]
  pKd: 3.79
[14]; [30]
  pKd: below the threshold
[15]
  pKd: below the threshold
[16]; [30]
  pKd: below the threshold
[17]; [30]
  pKd: below the threshold
[18]; [30]
  pKd: 4.96
[19]
  pKd: 3.4
[20]
  pKd: below the threshold
[21]
  pKd: below the threshold
[22]; [30]
  pKd: below the threshold
[23]; [30]
  pKd: below the threshold
[24]
  pKd: below the threshold
[25]; [30]
  pKd: 4.13
[26]; [30]
  pKd: below the threshold
[27]
  pKd: 5.42
[28]; [30]
  pKd: 3.58
[29]
  pKd: below the threshold

## SVWLRKETRV [CYSLTR2, Q9NS75]
[1]; [30]
  pKd: 4.23
[2]; [30]
  pKd: 4.92
[3]; [30]
  pKd: 5.78
[4]; [30]
  pKd: 5.63
[5]
  pKd: below the threshold
[6]
  pKd: 4.35
[7]
  pKd: 5.38
[8]
  pKd: below the threshold
[9]; [30]
  pKd: below the threshold
[10]; [30]
  pKd: 4.06
[11]
  pKd: 4.08
[12]; [30]
  pKd: 4.95
[13]; [30]
  pKd: 4.15
[14]; [30]
  pKd: below the threshold
[15]
  pKd: below the threshold
[16]; [30]
  pKd: 3.5
[17]; [30]
  pKd: 4.15
[18]; [30]
  pKd: 5.38
[19]
  pKd: 3.92
[20]
  pKd: below the threshold
[21]
  pKd: 3.7
[22]; [30]
  pKd: below the threshold
[23]; [30]
  pKd: below the threshold
[24]
  pKd: below the threshold
[25]; [30]
  pKd: 5.57
[26]; [30]
  pKd: below the threshold
[27]
  pKd: 5.75
[28]; [30]
  pKd: 4.27
[29]
  pKd: 4.43

## RSLEEEESQL [GRASP, Q7Z6J2]
[1]; [30]
  pKd: 3.56
[2]; [30]
  pKd: 3.63
[3]; [30]
  pKd: below the threshold
[4]; [30]
  pKd: below the threshold
[5]
  pKd: below the threshold
[6]
  pKd: 3.7
[7]
  pKd: 3.86
[8]
  pKd: 4.33
[9]; [30]
  pKd: 3.75
[10]; [30]
  pKd: 3.7
[11]
  pKd: 4.71
[12]; [30]
  pKd: 5.69
[13]; [30]
  pKd: below the threshold
[14]; [30]
  pKd: 3.87
[15]
  pKd: below the threshold
[16]; [30]
  pKd: 3.69
[17]; [30]
  pKd: 3.69
[18]; [30]
  pKd: 3.84
[19]
  pKd: below the threshold
[20]
  pKd: below the threshold
[21]
  pKd: 3.72
[22]; [30]
  pKd: 3.85
[23]; [30]
  pKd: 3.99
[24]
  pKd: below the threshold
[25]; [30]
  pKd: 4.36
[26]; [30]
  pKd: 3.64
[27]
  pKd: 3.81
[28]; [30]
  pKd: 4.01
[29]
  pKd: 3.86

## KSRVAFFEEL [NF2, P35240]
[2]; [31]
  pKd: 3.63
[3]; [31]
  pKd: 3.5
[4]; [31]
  pKd: 3.53
[9]; [31]
  pKd: 3.73
[10]; [31]
  pKd: 3.83
[12]; [31]
  pKd: 3.7
[14]; [31]
  pKd: 3.62
[16]; [31]
  pKd: 3.61
[18]; [31]
  pKd: 3.78
[22]; [31]
  pKd: 3.76
[25]; [31]
  pKd: 3.82
[26]; [31]
  pKd: 3.77
[28]; [31]
  pKd: 3.63

## SSRTRRETQL [HPV16-E6, P03126]
[1]; [30]
  pKd: 4.92
[2]; [30]
  pKd: 4.73
[3]; [30]
  pKd: 5.06
[4]; [30]
  pKd: 5.91
[5]
  pKd: below the threshold
[6]
  pKd: 3.91
[7]
  pKd: 5.18
[8]
  pKd: below the threshold
[9]; [30]
  pKd: below the threshold
[10]; [30]
  pKd: 3.89
[11]
  pKd: 4.23
[12]; [30]
  pKd: 4.91
[13]; [30]
  pKd: 4.12
[14]; [30]
  pKd: below the threshold
[15]
  pKd: below the threshold
[16]; [30]
  pKd: below the threshold
[17]; [30]
  pKd: below the threshold
[18]; [30]
  pKd: 4.66
[19]
  pKd: 3.68
[20]
  pKd: below the threshold
[21]
  pKd: 3.52
[23]; [30]
  pKd: below the threshold
[24]
  pKd: below the threshold
[25]; [30]
  pKd: 4.7
[26]; [30]
  pKd: below the threshold
[27]
  pKd: 5.31
[29]
  pKd: 3.8

## KRPEMTSSSV [MUC3B, MUC3A, Q02505;Q9H195]
[1]; [31]
  pKd: 4
[3]; [31]
  pKd: 4.06
[4]; [31]
  pKd: below the threshold
[12]; [31]
  pKd: 5.03
[13]; [31]
  pKd: below the threshold
[17]; [31]
  pKd: 1.89
[23]; [31]
  pKd: 4
[28]; [31]
  pKd: 3.96
